The series has as its target recombinant His-tagged PLS3 protein (pQE vector) (UniProt Q9NRY6).

Sequence of recombinant His-tagged PLS3 protein (pQE vector) (Q9NRY6 whole entry): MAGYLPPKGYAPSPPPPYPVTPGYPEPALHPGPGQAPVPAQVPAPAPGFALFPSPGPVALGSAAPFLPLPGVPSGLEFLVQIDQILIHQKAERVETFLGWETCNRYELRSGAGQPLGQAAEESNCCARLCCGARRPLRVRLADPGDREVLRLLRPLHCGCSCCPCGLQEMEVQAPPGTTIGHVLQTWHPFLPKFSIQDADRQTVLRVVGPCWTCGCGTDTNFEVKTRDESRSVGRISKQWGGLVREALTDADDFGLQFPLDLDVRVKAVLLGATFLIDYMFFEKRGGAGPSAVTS

With recombinant PKC-δ enzyme (Calbiochem), the in vitro phosphorylation entry was “The PLS3 protein was a high-affinity substrate for PKC-δ and the phosphorylation steadily increased over the first 25 minutes”; the km entry is recorded as “it was determined that the km is 10.5 nM”.

The values are drawn from patent publication US20060172958.
